# In patent US20080260748A1:
# Biological target: desmocollin 2 (DSC2) (human) (UniProt Q02487)
# Experiment: flow cytometry on NCI-H358 cells, control human IgG
binder,measurement,value
"anti-DSC2 human antibody 332 (antibody, V domains shown) VH: QVQLQQWGAGLLKPSETLSLTCAVYGGSFSGNYWSWIRQPPGKGLEWIGEINHSGNTKYNPSLKSRVAISADTSKNQFSLKLSSVTAADTAVYYCARVPFDWFHPPGEPPFYYYYGMDVWGQGTTVTVSS VL: HVILTQPPSVSGAPGQRVTISCTGSSSNIGAGYDVHWYQQLPGTAPKLLIYGNSNRPSGVPDRFSGSKSGTSASLAITGLQAEDEADYYCQSYDSSLSGWVFGGGTKLTVPG",MFI (ratio of intensity to control IgG),9.48
